Results from patent US20230357415A1 (AJOU UNIVERSITY INDUSTRY ACADEMIC COOPERATION FOUNDATION, published 2023).

T1: purified sIL-5Rα (Asp1-Asn313 of SEQ ID NO: 66) (Homo sapiens (Human), UniProt Q01344 21-333)
T1 construct: also called the purified sIL-5Rα
T1 sequence: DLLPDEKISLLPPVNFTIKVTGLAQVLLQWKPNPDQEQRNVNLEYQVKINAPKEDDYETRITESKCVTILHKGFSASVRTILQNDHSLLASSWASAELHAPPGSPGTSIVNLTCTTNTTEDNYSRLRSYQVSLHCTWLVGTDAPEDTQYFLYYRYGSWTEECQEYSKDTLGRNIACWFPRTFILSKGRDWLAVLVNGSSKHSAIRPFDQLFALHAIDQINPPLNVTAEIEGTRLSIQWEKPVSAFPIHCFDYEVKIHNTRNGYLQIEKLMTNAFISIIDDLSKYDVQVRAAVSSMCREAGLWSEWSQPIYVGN

T2: sIL-5Rα antigen protein (Sinobio 10392-H08H) (Homo sapiens (Human), UniProt Q01344 21-342)
T2 construct: Bought protein immobilised in the indirect ELISAs; also called soluble IL-5Rα; CD125
T2 sequence: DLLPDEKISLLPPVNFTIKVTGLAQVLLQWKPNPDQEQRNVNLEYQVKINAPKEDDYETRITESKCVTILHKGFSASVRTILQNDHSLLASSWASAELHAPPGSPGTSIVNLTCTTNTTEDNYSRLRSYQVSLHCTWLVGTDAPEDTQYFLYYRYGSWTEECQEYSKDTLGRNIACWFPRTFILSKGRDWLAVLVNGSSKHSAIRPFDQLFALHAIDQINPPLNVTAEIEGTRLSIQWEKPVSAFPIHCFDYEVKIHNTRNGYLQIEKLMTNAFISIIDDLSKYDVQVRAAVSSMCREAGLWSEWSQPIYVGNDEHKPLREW


What was measured:
insulin = biological target: T3, insulin (Homo sapiens (Human), UniProt P01308 25-54; P01308 90-110, Mature two-chain hormone: A and B chains joined by two interchain disulfides, plus one intrachain disulfide in the A chain; the letters do not carry these.); assay: indirect ELISA; plate-coated insulin, antibody 100 nM, anti-human Fc-HRP, absorbance at 450 nm
T3 construct: Irrelevant antigen of the multi-antigen specificity ELISA; also called insulin (125 ng/well, 19278; Sigma)
Method: (§1) The binding specificity of anti-IL-5Rα humanized antibodies was determined using indirect ELISA. A multi-antigen ELISA was performed using four structurally different antigenic double-stranded DNA (dsDNA), insulin, the macromolecule hemocyanin, and the membrane component, cardiolipin. Specifically, sIL-4Rα antigen protein (50 ng/well, Sinobio; 10402-H08H), sIL-5Rα antigen protein (50 ng/well, Sinobio; 10392-H08H), dsDNA (25 ng/well, D4522; Sigma), insulin (125 ng/well, 19278; Sigma), hemocyanin (125 ng/well, H8283; Sigma), and cardiolipin (1250 ng/well, C0563; Sigma) proteins were immobilized on a 96-well plate at room temperature for 1 hour, and blocked using 2% skim milk containing 0.1% PBST (0.1% Tween20, pH 7.4, 137 mM NaCl, 10 mM phosphate, 2.7 mM KCl) at room temperature for 1 hour. After discarding the solution and then washing the same three times with 0.1% PBST, the antibody was diluted to 100 nM, added to the blocked plate in an amount of […], and allowed to react at room temperature for 1 hour. […] After discarding the solution and washing three times with PBST, a TMB solution was added in an amount of […], color development was induced at room temperature for 2 minutes, the reaction was stopped using H₂SO₄ (2N), and the absorbance at 450 nm was measured with an ELISA reader.

[1] = biological target: T4, sIL-4Rα (soluble IL-4Rα) antigen protein (human, UniProt P24394 26-232); assay: indirect ELISA; plate-coated sIL-4Rα, antibody 100 nM, anti-human Fc-HRP, absorbance at 450 nm
T4 construct: The ELISA and Octet assays used the bought protein (Sinobio 10402-H08H); also called CD124; sinobio 10402-H08H
Method: as §1

[2] = biological target: T1, purified sIL-5Rα (Asp1-Asn313 of SEQ ID …); assay: BLI (Octet QKe), antibody on AHC sensor, purified sIL-5Rα in solution, 1:1 model
Method: Specifically, lx kinetic buffer was prepared by diluting 10× kinetic buffer (ForteBio, 18-1105) in PBS. […] Affinity was calculated with Octet Data Analysis software 11.0 in a 1:1 binding model.

[3] = biological target: T2, sIL-5Rα antigen protein (Sinobio …); assay: indirect ELISA; plate-coated sIL-5Rα, antibody 100, 10, 1 nM, anti-human Fc-HRP, absorbance at 450 nm
Method: After discarding the solution and washing the same three times with 0.1% PBST, an anti-human Fc-HRP antibody (1:8000) as a secondary antibody was added in an amount of 25 μl/well and reacted at room temperature for 1 hour.

T3 sequence (P01308 25-54 limits assumed, chain 1 of 2): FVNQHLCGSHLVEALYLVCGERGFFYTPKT
T3 sequence (P01308 90-110 limits assumed, chain 2 of 2): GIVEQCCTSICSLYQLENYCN

binding result (insulin)	binding result [1]	Kd [2] [nM]	koff [2] [s⁻¹]	kon [2] [M⁻¹ s⁻¹]	binding result [3]	Binder
no binding (tested: 100 nM)	no binding (tested: 100 nM)	6.13	0.000171	28000	–	5R65.39 (antibody, IgG1, V domains shown, IgG1) VH: QVQLVQSGAEVKKPGSSVKVSCKASGYTFTSYWINWVRQAPGQGLEWIGHIYPNKNENYYNHKFKDKATLTVDKSTNTAYMELSSLRSEDTAVYYCTREFYGRSRYSAMDYWGQGTTLTVSS VL: DIQMTQSPSTLSASVGDRVTITCKASQNVGTAVAWYQQKPGKAPKLLIYWASTRHTGVPDRFSGSGSGTDFTLTISSLQPDDFATYYCQQFGRYPYTFGSGTKVEVK
no binding (tested: 100 nM)	no binding (tested: 100 nM)	7.26	0.000181	24900	–	5R65.45 (antibody, IgG1, V domains shown, IgG1) VH: QVQLVQSGAEVKKPGSSVKVSCKASGYTFTSYWINWVRQAPGQGLEWIGHIYPNKNENYYNHKFKDKATLTVDKSTNTAYMELSSLRSEDTAVYYCTREYYGRSYYNAMDYWGQGTTLTVSS VL: DIQMTQSPSTLSASVGDRVTITCKASQNVGTAVAWYQQKPGKAPKLLIYWASTRHTGVPDRFSGSGSGTDFTLTISSLQPDDFATYYCQQFGRYPYTFGSGTKVEVK
–	–	–	–	–	binds	4R34.1.19-SL-5R65 (bispecific antibody, human IgG1, kappa, The 4R34.1.19 variable regions are outermost and the 5R65 variable regions come second; also called 4R-SL-5R; DVD-IgG) light: QSVLTQPPSASGTPGQRVTISCSGSPLFPDSGSFNWYQQLPGTAPKLLIYADSHRPSGVPDRFSGSKSGTSASLAISGLRSEDEADYYCGTWDYSLSGYVLGGGTKLTVLGTVAAPDIQMTQSPSTLSASVGDRVTITCKASQNVGTAVAWYQQKPGKAPKLLIYWASTRHTGVPDRFSGSGSGTDFTLTISSLQPDDFATYYCQQFGRYPYTFGSGTKVEVKRTVAAPSVFIFPPSDEQLKSGTASVVCLLNNFYPREAKVQWKVDNALQSGNSQESVTEQDSKDSTYSLSSTLTLSKADYEKHKVYACEVTHQGLSSPVTKSFNRGEC heavy: not shown
